Experimental data published in publication PMC3257258, “Characterization of a Novel Association between Two Trypanosome-Specific Proteins and 5S rRNA”.

Assays:
P34 [1] = target: T1, P34 (Trypanosoma brucei, UniProt O15758 1-262); experiment: competition; competes 5S rRNA at 100-1000 ng; Filter binding: 10 mM Tris pH 7.4, 1 mM EDTA, 100 mM NaCl, 0.1% NP-40, 100 ug/mL BSA, RT 20 min; EMSA/competition/RNase H protection: 10 mM Tris-HCl pH 7.4, 150 mM KCl, 0.1 mM DTT, 0.1 mM EDTA, 0.1% NP-40, RT 20 min; conditions: protein: recombinant; tags: His (pQE-1); hairpin
T1 sequence: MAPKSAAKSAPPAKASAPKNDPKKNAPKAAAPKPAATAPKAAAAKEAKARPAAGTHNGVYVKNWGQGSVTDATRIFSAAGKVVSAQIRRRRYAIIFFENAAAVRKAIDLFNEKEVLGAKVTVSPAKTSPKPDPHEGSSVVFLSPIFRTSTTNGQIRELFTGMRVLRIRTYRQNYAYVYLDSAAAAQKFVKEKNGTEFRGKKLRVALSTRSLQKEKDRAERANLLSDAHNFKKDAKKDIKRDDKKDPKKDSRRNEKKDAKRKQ

P37 [2] = target: T2, P37 (Trypanosoma brucei, UniProt O15759 1-279); experiment: competition; competes 5S rRNA at 100-1000 ng, somewhat better than for P34; Filter binding: 10 mM Tris pH 7.4, 1 mM EDTA, 100 mM NaCl, 0.1% NP-40, 100 ug/mL BSA, RT 20 min; EMSA/competition/RNase H protection: 10 mM Tris-HCl pH 7.4, 150 mM KCl, 0.1 mM DTT, 0.1 mM EDTA, 0.1% NP-40, RT 20 min; conditions: protein: recombinant; tags: His (pQE-1); hairpin
T2 sequence: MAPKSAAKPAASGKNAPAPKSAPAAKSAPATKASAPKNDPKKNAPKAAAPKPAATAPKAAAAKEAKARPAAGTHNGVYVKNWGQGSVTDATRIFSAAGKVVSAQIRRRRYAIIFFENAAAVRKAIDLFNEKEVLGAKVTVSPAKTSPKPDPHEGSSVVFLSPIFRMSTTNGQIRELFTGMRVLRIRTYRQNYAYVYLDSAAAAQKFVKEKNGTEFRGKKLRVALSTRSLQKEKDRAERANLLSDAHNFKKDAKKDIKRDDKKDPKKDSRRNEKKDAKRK

P37 [3] = target: T2, P37; experiment: filter binding; similar to wild type, data not shown; Filter binding: 10 mM Tris pH 7.4, 1 mM EDTA, 100 mM NaCl, 0.1% NP-40, 100 ug/mL BSA, RT 20 min; EMSA/competition/RNase H protection: 10 mM Tris-HCl pH 7.4, 150 mM KCl, 0.1 mM DTT, 0.1 mM EDTA, 0.1% NP-40, RT 20 min; conditions: protein: recombinant; tags: His (pQE-1); label: 32P-UTP (body)
P34 [4] = target: T1, P34; experiment: filter binding; no significant difference from wild type (one text sentence says P37; legend and assay say P34); Filter binding: 10 mM Tris pH 7.4, 1 mM EDTA, 100 mM NaCl, 0.1% NP-40, 100 ug/mL BSA, RT 20 min; EMSA/competition/RNase H protection: 10 mM Tris-HCl pH 7.4, 150 mM KCl, 0.1 mM DTT, 0.1 mM EDTA, 0.1% NP-40, RT 20 min; conditions: protein: recombinant; tags: His (pQE-1); label: 32P-UTP (body)

B1: LoopA/StemV (structured_RNA)
RNA: GCGGGGUGCCAUACUUACAGGCCUCGC
binding result (P34 [1]): binds
binding result (P37 [2]): binds

B2: 5S rRNA deltaU (U43A) (structured_RNA)
RNA: GGGUACGACCAUACUUGGCCGAAUGCACCAUAUCCCGUCCGAAUUGUGAAGUUAAGCGGCCACAGGCCUCGUUAGUACGGCGAUCAGUGAUGGCGCUGGAACCCGGGGUGUUGUACUCU
binding result (P37 [3]): binds
binding result (P34 [4]): binds
